Target: H3(1-53) peptide

B1: protein lysine N-methyltransferase (histone H3 lysine-9 specific) from Neurospora crassa (NcDIM-5) (protein)
chain: IRSFATHAQLPISIVNREDDAFLNPNFRFIDHSIIGKNVPVADQSFRVGCSCASDEECMYSTCQCLDEMAPDSDEEADPYTRKKRFAYYSQGAKKGLLRDRVLQSQEPIYECHQGCACSKDCPNRVVERGRTVPLQIFRTKDRGWGVKCPVNIKRGQFVDRYLGEIITSEEADRRRAESTIARRKDVYLFALDKFSDPDSLDPLLAGQPLEVDGEYMSGPTRFINHSCDPNMAIFARVGDHADKHIHDLALFAIKDIPKGTELTFDYVNGLTGLESDAHDPSKISEMTKCLCGTAKCRGYLW
Km for peptide H3(1-53), TM0936-coupled methyltransferase assay (absorbance 263 nm), SAM saturating, 7.6 nM NcDIM-5, glycine buffer pH 9.50: 0.9 µM

— patent US20230220443
